Source: patent US10058586B2, “Use of human small leucine zipper protein in adipocyte differentiation procedure” (Korea University Research and Business Foundation, priority 2013, dated 2018)

Tests used:
[1] = molecular target: T1, PPARγ2 (Homo sapiens, UniProt P37231); experiment: Fluorescence microscopy, subcellular localization of sLZIP and PPARγ2 in C3H10T1/2 cells; type: cell-based; conditions: GFP-PPARγ2 and Flag-sLZIP
T1 sequence (P37231 1-505): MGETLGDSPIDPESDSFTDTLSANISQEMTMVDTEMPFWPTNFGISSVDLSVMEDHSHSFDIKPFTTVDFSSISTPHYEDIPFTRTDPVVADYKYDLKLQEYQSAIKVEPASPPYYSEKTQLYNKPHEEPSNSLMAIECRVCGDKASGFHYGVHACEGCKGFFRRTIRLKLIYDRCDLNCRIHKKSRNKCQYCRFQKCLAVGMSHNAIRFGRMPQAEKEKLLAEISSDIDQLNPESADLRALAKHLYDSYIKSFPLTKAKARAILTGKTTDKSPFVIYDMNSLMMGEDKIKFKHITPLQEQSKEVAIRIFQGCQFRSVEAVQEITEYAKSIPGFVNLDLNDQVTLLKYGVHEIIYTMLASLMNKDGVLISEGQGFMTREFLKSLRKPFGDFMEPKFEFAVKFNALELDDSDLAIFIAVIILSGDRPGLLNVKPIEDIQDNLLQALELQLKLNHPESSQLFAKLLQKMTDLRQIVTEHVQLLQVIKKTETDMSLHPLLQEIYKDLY
Protocol: C3H10T1/2 cells were transiently ci-transfected with Flag-sLZIP, GFP-PPARγ2 or GFP-sLZIP, and HDAC3 was grown on cover slip. After 24 hours, the cells were fixed with 4% paraformaldehyde for 10 minutes and permeabilized 0.2% Triton-X 100 for 5 minutes. The cells were incubated with 1% BSA for one hour, and then incubated with anti-Flag and anti-HDAC3 antibodies overnight at 4° C. The cells were washed with PBS, and then were incubated with Texas Red-labeled antibodies for 2 hours. A cover slide was washed with PBS, and mounted on and examined using a LSM 510 META confocal microscopy (Carl Zeiss, Jena, Germany).
(§1) In order to examine whether the transcriptional activity of PPARγ2 is regulated by interaction with sLZIP, interaction between sLZIP and PPARγ2 was examined. For this purpose, 293T cells were transfected with GST-sLZIP and Myc-PPARγ2. Cell lysates were obtained and GST pull-down analysis was performed using a glutathione 4B bead. A protein complex was analyzed in SDS-PAGE and then immunoblotted with specific antibodies (FIG. 2A). […] Proteins bound to the bead were analyzed in SDS-PAGE, and then immunoblotted with anti-PPARγ2 and anti-His antibodies (FIG. 2C). GFP-PPARγ2 and Flag-sLZIP constructs were expressed in C3H10T1/2 cells, and analyzed using mouse anti-Flag and Texas Red-labeled anti-mouse antibodies under a fluorescence microscope. […]

[2] = tested on: PGC1α; experiment: GST pull-down of GST-PPARγ2 with anti-PGC1α immunoblot in 293T cells; type: binding; conditions: 10 nM RZD for 24 hours
Protocol: Therefore, in order to understand a regulation mechanism of sLZIP in the PPARγ2 transcriptional activity by binding to the FABP4 promoter region, an effect of sLZIP on the interaction between PPARγ2 and HDAC3 was examined. For this purpose, 293T cells were transfected with GST-HDAC3, Myc-PPARγ2 and Flag-sLZIP, and were treated or not treated with 10 nM of RZD for 24 hours. Cell lysates were subjected to GST pull-down analysis using a glutathione 4B bead, and a protein complex was analyzed in SDS-PAGE, and then immunoblotted with anti-GST, anti-Myc and anti-Flag antibodies (FIG. 6A). GST-HDAC3, GST-PPARγ2, Myc-PPARγ2, Flag-sLZIP and Ha-UB were expressed in the 293T cells, and the cells were treated with 10 nM of RZD for 24 hours. Cell lysates were subjected to GST pull-down analysis (FIG. 6B). GST-PPARγ2 and Flag-sLZIP were expressed in the 293T cells and treated with 10 nM of RZD for 24 hours. Cell lysates were subjected to GST pull-down analysis, and a protein complex was analyzed in SDS-PAGE, and then immunoblotted with anti-PGC1α, anti-GST and anti-Flag antibodies (FIG. 6C).

[3] = molecular target: T1, PPARγ2; experiment: His pull-down of purified His-sLZIP with in vitro translated PPARγ2; type: binding; design: made in house; host or cells: PPARγ2: TNT in vitro translation system (Promega); His-sLZIP: E. coli BL21, pET-28a(+)
Protocol: sLZIP was cloned into a pET-28a(+) vector. His-sLZIP proteins were expressed in Escherichia coli (E. coli) BL21 cells using a T7 isopropyl-β-D-thiogalactopyranoside (IPTG)-inducible system. IPTG-induced cells were disrupted bysonification and cell lysates were clarified by centrifugation. His-sLZIP proteins were applied onto a nickel-nitrilotriacetic acid bead column (Bio-Rad, Richmond, Calif.). The column was washed with a great volume of a lysis buffer and 10 mM of imidazole, and eluted in a Ni-NTA elution buffer (Bio-Rad Laboratories, Hercules, Calif.). A fraction containing His-sLZIP proteins was dialyzed against 10% glycerol, and stored at −80° C. Protein purification was evaluated according to 10% SDS-PAGE/Coomassie blue staining and a purity of >98% in general was shown.
as §1, with “For this purpose, 293T cells were transfected with GST-sLZIP and Myc-PPARγ2. Cell lysates were obtained and GST pull-down analysis was performed using a glutathione 4B bead.” left out

B1: sLZIP: human small leucine-zipper protein, isoform of LZIP, 354 amino acids, no transmembrane domain; GenBank FJ263669, SEQ ID NO: 1 (protein, listed as Homo sapiens)
chain: MELELDAGDQDLLAFLLEESGDLGTAPDEAVRAPLDWALPLSEVPSDWEVDDLLCSLLSPPASLNILSSSNPCLVHHDHTYSLPRETVSMDLESESCRKEGTQMTPQHMEELAEQEIARLVLTDEEKSLLEKEGLILPETLPLTKTEEQILKRVRRKIRNKRSAQESRRKKKVYVGGLESRVLKYTAQNMELQNKVQLLEEQNLSLLDQLRKLQAMVIEISNKTSSSSMYSSDTRGSLPAEHGVLSRQLRALPSEDPYQLELPALQSEVPKDSTHQWLDGSDCVLQAPGNTSCLLHYMPQAPSAEPPLEWPFPDLFSEPLCRGPILPLQANLTRKGGWLPTGSPSVILQDRYSG
- subcellular localization of sLZIP and PPARγ2 [1]: localized in the nucleus together with PPARγ2
- recruitment of coactivator PGC-1α to PPARγ2 [2]: inhibited the complementing of a coactivator PGC-la for PPARγ2
- direct interaction with PPARγ2 (His pull-down) [3]: PPARγ2 was directly bound to sLZIP
